These results are taken from article PMC11704961.

Common to all, as to assay: EMSA
Data set [1] has as its target IPMK (human, UniProt Q8NFU5 1-416).
Data set [2] addresses T1, SRF (His-SRF);Elk1 (GST-His-Elk1) (human;human, UniProt P11831;P19419 1-508;1-428, |).
T1 sequence 1: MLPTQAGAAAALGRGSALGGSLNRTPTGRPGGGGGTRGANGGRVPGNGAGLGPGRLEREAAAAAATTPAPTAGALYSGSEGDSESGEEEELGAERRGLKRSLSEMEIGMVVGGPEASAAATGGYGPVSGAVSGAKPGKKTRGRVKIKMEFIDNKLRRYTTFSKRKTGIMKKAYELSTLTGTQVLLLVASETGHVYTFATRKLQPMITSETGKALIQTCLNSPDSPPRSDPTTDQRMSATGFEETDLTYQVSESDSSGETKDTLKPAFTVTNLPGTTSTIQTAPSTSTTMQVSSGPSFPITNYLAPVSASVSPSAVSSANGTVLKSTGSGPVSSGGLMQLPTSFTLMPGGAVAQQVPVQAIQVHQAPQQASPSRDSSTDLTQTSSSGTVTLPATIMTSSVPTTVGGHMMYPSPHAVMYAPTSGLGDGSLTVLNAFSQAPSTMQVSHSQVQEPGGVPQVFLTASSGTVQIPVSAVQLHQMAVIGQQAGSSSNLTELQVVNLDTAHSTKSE
T1 sequence 2: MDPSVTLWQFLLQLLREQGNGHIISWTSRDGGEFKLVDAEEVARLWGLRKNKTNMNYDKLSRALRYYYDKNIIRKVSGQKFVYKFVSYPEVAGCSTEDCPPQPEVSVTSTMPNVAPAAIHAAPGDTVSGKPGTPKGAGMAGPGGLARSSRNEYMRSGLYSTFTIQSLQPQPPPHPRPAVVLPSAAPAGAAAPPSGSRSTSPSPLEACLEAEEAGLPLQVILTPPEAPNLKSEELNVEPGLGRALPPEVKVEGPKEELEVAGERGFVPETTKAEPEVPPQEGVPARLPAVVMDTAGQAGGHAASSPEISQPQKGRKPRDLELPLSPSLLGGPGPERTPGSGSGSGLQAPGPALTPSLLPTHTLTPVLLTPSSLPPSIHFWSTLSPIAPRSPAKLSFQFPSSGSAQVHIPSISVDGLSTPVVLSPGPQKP

The target in data set [3] is T2, SRF (His-SRF) (human, UniProt P11831 1-508).
T2 sequence: T1 sequence 1

Chain of IPMK (Q8NFU5 whole entry): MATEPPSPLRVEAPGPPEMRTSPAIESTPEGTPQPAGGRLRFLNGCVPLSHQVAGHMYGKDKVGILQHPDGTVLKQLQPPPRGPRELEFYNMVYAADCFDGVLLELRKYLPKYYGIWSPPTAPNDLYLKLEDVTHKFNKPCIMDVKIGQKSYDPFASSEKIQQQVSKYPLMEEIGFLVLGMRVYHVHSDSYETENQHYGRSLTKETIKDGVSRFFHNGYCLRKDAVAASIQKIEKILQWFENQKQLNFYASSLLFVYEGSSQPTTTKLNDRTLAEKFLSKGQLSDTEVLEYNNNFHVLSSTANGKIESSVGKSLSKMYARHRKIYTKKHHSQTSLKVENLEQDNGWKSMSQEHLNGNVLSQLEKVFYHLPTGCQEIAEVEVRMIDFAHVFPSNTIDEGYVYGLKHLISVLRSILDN

B1: c-fos SRE EMSA probe (dsDNA)
DNA 1: CTAAGCTTGCTGACGCAGATGTCCTAATATGGACATCCTGTCCCGGGGA
DNA 2: TCCCCGGGACAGGATGTCCATATTAGGACATCTGCGTCAGCAAGCTTAG
With B1, the figures for the binding result in data set [1], in data set [2] and in data set [3] were “no binding”, “binds” and “binds”, respectively.
